# B1: wild-type human deoxythymidylate kinase (TMPK) (enzyme, UniProt P23919 1-212, looked up)
# chain: MAARRGALIVLEGVDRAGKSTQSRKLVEALCAAGHRAELLRFPERSTEIGKLLSSYLQKKSDVEDHSVHLLFSANRWEQVPLIKEKLSQGVTLVVDRYAFSGVAFTGAKENFSLDWCKQPDVGLPKPDLVLFLQLQLADAAKRGAFGHERYENGAFQERALRCFHQLMKDTTLNWKMVDASKSIEAVHEDIRVLSEDAIRTATEKPLGELWK
# notes: The pET-14b vector with N-terminal 6xHis tag is stated for the mutants only; the WT was 'run in parallel'; also called WT TMPK; WT; not shown: His6 (inferred from the mutants' construct)
# Biological target: the molecule itself
# Assay: SEC; Superdex G200; 10 mM Tris/HCl pH 7.6, 100 mM NaCl, 5 mM MgCl2, 5 mM DTT; 200 ug protein injected, 0.4 mL/min; 0.4 mL fractions analysed by TMPK activity and Western blot; size markers BSA, ovalbumin, cytochrome C
protein,measurement,value
B1,stoichiometry N,2
